{"source": "patent US20130190228A1", "biological_target": "hemagglutinin (HA) of A/PuertoRico/8/34 (PR/8, H1N1) influenza virus (influenza A virus A/PuertoRico/8/34 (H1N1)) (UniProt P03452)", "test": "cell-based or functional assay", "data": [{"substance": "EB peptide (entry blocker)", "values": [{"measurement": "EC50 of hemagglutination inhibition (PR/8)", "value": 2000, "unit": "nM"}, {"measurement": "EC50 of hemagglutination inhibition (PR/8, 64 HAU)", "value": 2600, "unit": "nM"}, {"measurement": "plaque reduction on MDCK cells (PR/8 pre-treated with peptide)", "value": 92, "unit": "%"}]}]}
